Assays:
Assay in all cases: malachite green Pi release
Assay type in all cases: biochemical, Arabidopsis thaliana
Conditions in all cases: pH 7.2, 30 °C, 100 mM KCl, 0.8 mM MgCl2
[1] = substrate: O=P(O)(O)O[C@@H]1[C@@H](OP(=O)(O)O)[C@H](OP(=O)(O)OP(=O)(O)O)[C@@H](OP(=O)(O)O)[C@H](OP(=O)(O)OP(=O)(O)O)[C@@H]1OP(=O)(O)O
[2] = substrate: O=P(O)(O)O[C@H]1[C@@H](OP(=O)(O)O)[C@H](OP(=O)(O)O)[C@@H](OP(=O)(O)OP(=O)(O)O)[C@H](OP(=O)(O)O)[C@H]1OP(=O)(O)O
[3] = substrate: O=P(O)(O)O[C@@H]1[C@@H](OP(=O)(O)OP(=O)(O)O)[C@H](OP(=O)(O)O)[C@@H](OP(=O)(O)O)[C@@H](O)[C@H]1OP(=O)(O)O

B1: AtPFA-DSP1 (full-length) (Arabidopsis thaliana) (protein)
chain: MKLVEKTTTTEQDNGEDFCRTIIEVSEVNRNVFQAPGGEADPFRVVSGEELHLIPPLNFSMVDNGIFRSGFPDSANFSFLQTLGLRSIIYLCPEPYPESNLQFLKSNGIRLFQFGIEGNKEPFVNIPDHKIRMALKVLLDEKNHPVLIHCKRGKHRTGCLVGCLRKLQKWCLTSIFDEYQRFAAAKARVSDQRFMEIFDVSSFSHIPMSFSCSIR
notes: full-length (codon-optimized cDNA, Genscript); pDest-566, N-terminal 6xHis-MBP tag cut with TEV protease; E. coli
**Q.** With B1 as the protein, how does the Km [1] read?
**A.** 44 µM

**Q.** What about the Km [2] of the same protein?
**A.** 60 µM

**Q.** What about the Km [3] of the same protein?
**A.** 78 µM
